# Tested on: PP2Ac
# Experiment: Summary of detection properties of C-terminal PP2Ac antibodies (Table 4), PP2Ac
# Format: binding
# Experimental: Examples of antibodies with a preference for non-methylated PP2Ac are mouse monoclonal antibody 4B7 (Yu (2001), Mol Biol Cell 12, 185-199), mouse monoclonal antibody 1D7 generated by the Ogris lab but also the rabbit monoclonal E155 antibody from Abeam and the mouse monoclonal F-8 from SCBT that were thought to be specific for pTyr^307.
# E155 was tested for its specificity to phosphorylation and methylation on the carboxy-terminus of PP2A on 6 different undecapeptides by ELISA (FIGS. 18 and 19). Flat-bottom Nunc-Immuno Medisorp 96-well ELISA plates (Thermo; 467320) were coated o/n at 4° C. with 50 μl of either a peptide of the sequence ac-HVTRRTPDYFL-OH (L309) (SEQ ID NO:18) at a concentration of 2 μg/ml, a peptide of the sequence ac-HVTRRTPDYFL-CH3 (meL309) (SEQ ID NO:18) at a concentration of 2 μg/ml in TBS (137 mM NaCl (AppliChem, #131659, 2.7 mM KCl (AppliChem, #131494.), 24.8 mM Tris (AppliChem, #A1086), pH 7.4 with HCl), with a peptide of the sequence ac-HVTRRpTPDYFL-OH (pT304-L309) (SEQ ID NO:116) at a concentration of 2 μg/ml in TBS, or with a peptide of the sequence ac-HVTRRpTPDYFL-CH3 (pT304-meL309) (SEQ ID NO:116) at a concentration of 2 μg/ml in TBS (FIG. 18). The wells were washed once with TBS, blocked with 200 μl of 2% bovine serum albumin (BSA) (Sigma, A9647) in TBS for 1 hour at RT and washed again once with TBS. […] Bound antibodies were detected colorimetrically by addition of 50 μl of 33 μg/ml […] (TMB) (Sigma, T2885) in 0.1 M sodium acetate pH 6.0 and 0.01% H2O2 (Sigma, H1009). The colorimetric reaction was stopped after 10 min by addition of 50 μl 0.5 M H2SO4, and absorbance was measured at 450 nm and 560 nm with a Perkin Elmer VICTOR® Nivo™ microplate reader. The results from 560 nm read were subtracted from the 450 nm read.
# In a further experiment, flat-bottom Nunc-Immuno Medisorp 96-well ELISA plates (Thermo; 467320) were coated o/n at 4° C. with 50 μl of either a peptide of the sequence ac-HVTRRTPDYFL-OH (L309) (SEQ ID NO:18) at a concentration of 2 μg/ml in TBS (137 mM NaCl (AppliChem, #131659, 2.7 mM KCl (AppliChem, #131494.), 24.8 mM Tris (AppliChem, #A1086), pH 7.4 with HCl), a peptide of the sequence ac-HVTRRTPDYFL-CH3 (meL309) (SEQ ID NO:18) at a concentration of 2 μg/ml in TBS (137 mM NaCl (AppliChem, #131659.1214, 2.7 mM KCl (AppliChem, #131494.1211) pH 7.4 with HCl), with a peptide of the sequence ac-HVTRRTPDpYFL-OH (pY307-L309) (SEQ ID NO:117) at a concentration of 2 μg/ml in TBS or with a peptide of the sequence ac-HVTRRTPDpYFL-CH3 (pY307-meL309) (SEQ ID NO:117) at a concentration of 2 μg/ml in TBS (FIG. 19). […] The colorimetric reaction was stopped after 10 min by addition of 50 μl 0.5 M H2SO4, and absorbance was measured at 450 nm and 570 nm with a Biotek Synergy™ H1 microplate reader. […]
# [1] = antibodies screened for binding methylated PP2Ac
molecule,measurement,setting,value
"7C10-C5: α-carboxymethylation specific mouse monoclonal IgG1 antibody from single clone hybridoma 7C10-C5 (DSM ACC3350) (antibody, Amino acid sequence of the recombinant 7C10-C5 heavy chain; Amino acid sequence of the recombinant 7C10-C5 light chain) heavy: MYRMQLLSCIALSLALVTNSDVQLQESGPGLVKPSQSLSLTCSVTGYSITSGYYWNWIRQFPGNKLEWMGYISYDGSNNYNPSLKNRISITRDTSKNQFFLKLNSVTTEDTATYYCAGRFAYWGQGTLVTVSAAKTTAPSVYPLAPVCGDTTGSSVTLGCLVKGYFPEPVTLTWNSGSLSSGVHTFPAVLQSDLYTLSSSVTVTSSTWPSQSITCNVAHPASSTKVDKKIEPRGPTIKPCPPCKCPAPNLLGGPSVFIFPPKIKDVLMISLSPIVTCVVVDVSEDDPDVQISWFVNNVEVHTAQTQTHREDYNSTLRVVSALPIQHQDWMSGKEFKCKVNNKDLPAPIERTISKPKGSVRAPQVYVLPPPEEEMTKKQVTLTCMVTDFMPEDIYVEWTNNGKTELNYKNTEPVLDSDGSYFMYSKLRVEKKNWVERNSYSCSVVHEGLHNHHTTKSFSRTPGK light: MDMRVPAQLLGLLLLWLSGARCDVLMTQTPLSLPVSLGDQASISCRSSQSIVHSNGNTYLEWYLQKPGQSPKLLIYKVSNRFSGVPDRFSGSGSGTDFTLKINRVEAEDLGVYYCFQGSHVPWTFGGGTKLEIKADAAPTVSIFPPSSEQLTSGGASVVCFLNNFYPKDINVKWKIDGSERQNGVLNSWTDQDSKDSTYSMSSTLTLTKDEYERHNSYTCEATHKTSTSPIVKSFNRNEC",meLeu^309,PP2Ac carboxymethylated at Leu309,*** (*** 80-100%)
same,pThr^304 meLeu^309,[1],**** (**** >100%)
same,pTyr^307 meLeu^309,[1],*** (*** 80-100%)
same,unmodified,unmodified PP2Ac C-terminus,— (— <15%)

# Reference: US20230121197A1, “ANTIBODIES SPECIFICALLY BINDING THE CARBOXYMETHYLATED CATALYTIC SUBUNIT OF PROTEIN PHOSPHATASE 2A” (Medizinische Universität Wien, priority 2020, published 2023)
